Tests used:
[1] = biological target: Interferon-gamma (IFN-γ) (UniProt P01579 24-161); assay: competition
[2] = biological target: SARS-CoV nucleocapsid (N) protein (SARS-CoV, UniProt P59595 1-422); assay: competition
[3] = biological target: SARS-CoV-2 spike S1 (SARS-CoV-2, UniProt P0DTC2 13-685); assay: 5.0 ng/mL in EIS

Measured: binding result

Chain of Interferon-gamma (IFN-γ) (P01579 24-161): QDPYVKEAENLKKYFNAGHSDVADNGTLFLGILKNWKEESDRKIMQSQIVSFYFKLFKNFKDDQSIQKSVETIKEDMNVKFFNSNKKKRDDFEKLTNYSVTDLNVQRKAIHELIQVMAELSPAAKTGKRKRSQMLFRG
Chain of SARS-CoV nucleocapsid (N) protein (P59595 whole entry): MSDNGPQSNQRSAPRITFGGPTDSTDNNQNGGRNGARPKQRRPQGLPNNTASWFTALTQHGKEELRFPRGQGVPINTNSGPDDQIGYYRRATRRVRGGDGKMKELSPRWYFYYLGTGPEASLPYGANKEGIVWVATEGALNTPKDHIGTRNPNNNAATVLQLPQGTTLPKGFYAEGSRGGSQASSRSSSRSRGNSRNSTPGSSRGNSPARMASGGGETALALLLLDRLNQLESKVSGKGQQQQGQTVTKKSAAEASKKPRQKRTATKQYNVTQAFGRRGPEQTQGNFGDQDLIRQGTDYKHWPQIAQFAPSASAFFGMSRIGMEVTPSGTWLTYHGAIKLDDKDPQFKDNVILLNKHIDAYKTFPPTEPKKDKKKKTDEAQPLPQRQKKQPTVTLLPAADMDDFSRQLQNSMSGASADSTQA

B1: N48 aptamer (ssDNA)
DNA: GCTGGATGTCGCTTACGACAATATTCCTTAGGGGCACCGCTACATTGACACATCCAGC
no binding: [1] | [2] | [3]
